Laboratory results taken from US20090068744A1, “VITREOUS CELL LINE” (SENJU PHARMACEUTICAL CO., LTD., priority 2006, published 2009).

B1: PDGF-BB: cytokine used to stimulate the vitreous cell line (10 ng/ml) (protein, UniProt P01127 82-190, looked up)
Platelet-derived growth …: SLGSLTIAEPAMIAECKTRTEVFEISRRLIDRTNANFLVWPPCVEVQRCSGCCNNRNVQCRPTQVQLRPVQVRKIEIVRKKPIFKKATVTLEDHLACKCETVAAARPVT
B2: IL-1α: cytokine used to stimulate the vitreous cell line (10 ng/ml) (protein, UniProt P01583 113-271, looked up)
Interleukin-1 alpha: SAPFSFLSNVKYNFMRIIKYEFILNDALNQSIIRANDQYLTAAALHNLDEAVKFDMGAYKSSKDDAKITVILRISKTQLYVTAQDEDQPVLLKEMPEIPKTITGSETNLLFFWETHGTKNYFTSVAHPNLFIATKQDYWVCLAGGPPSITDFQILENQA

How the values were obtained:
[1] = system: VEGF mRNA expression by a vitreous cell line; experiment: VEGF mRNA expression by RT-PCR after cytokine stimulation of the vitreous cell line; type: cell-based, swine; conditions: for VEGF mRNA expression level: cytokine 10 ng/ml, up to 48 hours, FIG. 7, FIG. 9; for VEGF mRNA level as compared to the mRNA level of non-stimulation control: RT-PCR
Experimental: (§1) Changes of VEGF expression due to cytokine stimulation in the vitreous cell line established in Example 1 were examined. The expression of VEGF at an mRNA level was examined by RT-PCR, and the expression at a protein level was examined by ELISA.
To be specific, when the vitreous cell line reached 50-60% confluent, the medium for the cells was exchanged with DMEM containing 1% bovine serum. […] Total RNA was extracted from the stimulated cells, cDNA was synthesized, and PCR was conducted using VEGF primers. The medium of the stimulated cells was used for ELISA. Since an appropriate antibody to swine VEGF is not available, VEGF protein concentration was measured by ELISA using an antibody to human VEGF, and the result was calculated as a reference value led from a human VEGF standard product. PCR was conducted using TOYOBO KOD plus kit and Gene PCR System 9700 (Applied Biosystem). The conditions of PCR were as follows:
(§2) 95° C. 120 seconds; (95° C. 15 seconds, 62° C. 30 seconds, 68° C. 30 seconds)×30 cycles; 68° C. 90 seconds. ELISA was entrusted to Mitsubishi BCL.

[2] = system: VEGF protein expression by a vitreous cell line; experiment: VEGF protein in culture supernatant by ELISA after cytokine stimulation; type: cell-based, swine; conditions: cytokine 10 ng/ml; ELISA with antibody to human VEGF, relative values; FIG. 8
Experimental: as §1
To be specific, when the vitreous cell line reached 50-60% confluent, the medium for the cells was exchanged with DMEM containing 1% bovine serum. After culturing for 24 hours, the cells were stimulated with cytokine (IL-1α, IL-1β, TNFα, PDGF-AA, PDGF-BB or TGFβ) (10 ng/ml) for 48 hours (FIG. 6). Total RNA was extracted from the stimulated cells, cDNA was synthesized, and PCR was conducted using VEGF primers. The medium of the stimulated cells was used for ELISA. Since an appropriate antibody to swine VEGF is not available, VEGF protein concentration was measured by ELISA using an antibody to human VEGF, and the result was calculated as a reference value led from a human VEGF standard product. PCR was conducted using TOYOBO KOD plus kit and Gene PCR System 9700 (Applied Biosystem). The conditions of PCR were as follows:
as §2

Row | Molecule | VEGF mRNA expression level [1] | concentration of VEGF protein in the culture supernatant [2] | VEGF mRNA level as compared to the mRNA level of non-stimulation control ([1]; in 12 hours) [fold] | VEGF mRNA level as compared to the mRNA level of non-stimulation control ([1]; in 48 hours) [fold]
1 | B1 | a significant change in the VEGF mRNA expression level was not observed |  |  | 
2 | B2 | increased with time | increased with time | ≥ 2 | ≥ 2.5
